In a protein production outcome set (Wang et al. 2014) one finds protein production data, which are given here for twelve sequences.

A short description of the data set: label from the status in PepcDB records.
“MKKWWMLTICIVFIVAAVVPVRAAAASHPLFANVIVVFQQQVDEQAVKTLHGNVTKRFEVIPAVAATLPVTAVELLRRWPGVDYVQQDTTVAIDGQITDWGVEKVKAPVMHTHGVTGKGVKIAILDTGVDLKHPDLRVVGGACVLSYCPNSYQDDNGHGTHVAGIIAAKDNDIGTVGVAPNASIYAVKVLDRYGEGNVSDILSGIEWAMKHRVDIINLSLAAPEDAPALKAAIRKAYESGILVVAAAGNNGYANGTGDTVEYPAKYDSAIAVSAVNKENVRLPYSATGPAIEVAAPGEGVYSTVPVALDGDGRRDGYTHMSGTSMAAPFVTGVLALYKQQYPERTNIELRQMLRDRALDLGTPGRDPWYGYGLVRAVSNQPPELKVKLLSVKKGEVAFSVTLSGSAVKGYRVYRNGKQIETLQTAGTYTDYVVKGTYQYEFASIRNDGAESALTAPITVNVPDPYYKDVSASAWYMPEIAYLSSRGIVSGYNNGTIQPYNTITRAEVAVMLGRALHLDATKRATVFRDVASSDFASGYIQSAYERGLINGYPDGTFRPQQPITRAETAIILSRAYPLPGGSSMMFKDVTARVTGHEAIAKLAAARIAEGYPDGTFRPYQFVKRLEFFVFTARADNERFR”: the protein production entry is “failed”.

As for “MKKYFITIMILLFGTLILAACQNSDEADNYEPPKVDLKDQIPIILIHGSGGNASSLDKMADQLMNEYRSSNEALTMTVNSEGKIKFEGKLTKDAKRPIIKFGFEQNQATPDDWSKWLKIAMEDLKSRYGFTQMDGVGHSNGGLALTYYAEDYAGDKTVPTLRKLVAIGSPFNDLDPNDNGMDLSFKKLPNSTPQMDYFIKNQTEVSPDLEVLAIAGELSEDNPTDGIVPTISSLATRLFMPGSAKAYIEDIQVGEDAVHQTLHETPKSIEKTYWFLEKFKTDETVIQLDYK”, the protein production result was “failed”.

In the case of “MKKYLAGLAAVSVAGGAAPTLDSVQAAPEQNTQKAATTVQASASNNSSYTVNTSVLHVRAGSSTSHDIISRVYNGQSLNVIGEENGWFKININGKTGFVSGEFVSKSGAANNNVSTGGNNKVTADVLRVRTAPNTSSSVSGRVYAGQTLNVIGQENGWVKINHNGQVGYVSGEFVSGVSSNGGSSNNNTNNNNQEVKPASGNYTVNVSSLRVRTGPSTSHTTVGSVKKGQVVQVVGEVQDWFKINYAGQTAYISKDYVTKGGSNENVTEGNKQEQNNNGTIQTGGSYVVNATSLRVRTGPAAYHSVIGGVLNGTTLNVVGSENGWFKVNYQGKTGFVSSEFVKFVKGGTTTPEQPKQPEKPNQGTIGDYYINASALNVRSGEGTNYRIIGALPQGQKVQVISENSGWSKINYNGQTGYIGTRYLSKTPVGGAVDNKPNNNQNNNQNNNNNNNTGNNSGDSSSVLAYAKSMQGVPYVWGGTSANGVDCSGYIYHVFKKFGHNISRQSVAGYWSSLPKTSSPQPGDLIYFQNTYKSGPSHMGIYLGGGSFIQAGDKGVAIASLSNSYWKSHFLGYTKAP”, the protein production entry is “failed”. Turning to “MKLAEALILRADLQKELMSLKNRINQNLLVQEGEKPSENPYTLYDEILLKVSELEGLILKINKTNSNYITSNNESISDLIVKRDMLGKKISILKEIAEEATVKVNRYSQTEIKIFSAMKVDQLQREINKYSKEYRELDTKLQGLNWTIDLME”, the protein production result was “failed”. With “MKLAIIIPVYNAEETIKRAILSVDTSVPYEIICINDGSTDQTQHVLTELQQKHPHIKVIHQSNQGAARSRNVGLEAMSEDVDAFLFLDADDEFLPSRIDLMVNAFNKNKETDVVIGQMARDVNGEWQVISTHQSMVKDAIVTLDRKPDILQSIGPGAKLFSSKYAGLRFDEDVVFCEEHTFIVKAFSKARDIQLIPNIVYGYNEREGSVTAQRADTFLPYMSDALKVRQRVMELLLLLDEKIYYSYRMDNLIVSYLIQAHLKKNNKITQSLLESVIEYMKAMQHTHYSGEAMFRIVRAVEQSATHWTKPLYLQWKKALSEVGIGRPGLIRFKLQVIPKKISFSGKESLKRIFKK”, the protein production entry is on record as “failed”.

With “MKLALFDLDHTLLNTDSDHSWGEFLVNEGLVDPVHHRQMNDKFYEDYKAGQLDPIAYNEFVFEFLTQNTPEVLTDLHALFMQKVIRPQMRPKGFDGIKKHQNLGHDIVGITATSDFITAPIFRAFGITEIIATNAEVQDGKYTGKVAGLPCYQKGKLARLDQWLAGRSVEESWAYSDSINDRFLLEYATHAIAVNPDDRLEKLAIDQGWTIEDWSI”, the protein production entry was “failed”. As for “MKLDLARKRPSLLARLWLRLGALLGRTLLLLLVIGLLGWALSSAWFAWHHRGPVAVQEQVPADEAARTQDIIQTAVRIVDQHREGTRYLRDAHAKAHGCVKAQVQVLNDLSPPLRQGVFATPGQTWQAVVRLSNGNAYPQFDSIRDARGMAIKLLDVPGQQLMASESQRREQDFVMFNHPNFFVSDVAEYQQNIAAQADGKKVGAFFPGWDPRTWQVRHLFIALATLSPAPASPTQTTYYSVSPYKFGNANAKFRVMPDPESCPAYSLPAQNQDLPNFLRSALTQQLSTDRVGACFVLQVQRQDPNRFMPIEDTSIEWKESDAPFETVARVTLPAQDFDTPAQNLACDNQSFNPWFGLEAHRPIGGINRLRKAVYEAVSDYRHSRNAEQ”, the protein production result was “failed”. With “MKLENQSETTANIQLNAPELVEANIAEVTSITIEKFLGSFTSVTRLLLNLSPLKNFHKDGLVSGKWNEPKDVPECLLSQLETFVWRRLDWGREEEKEIATYILKNGRRLKKETFTTNPIESEGLNKLKERLKVLNGLDGVQAPLFRKDGVVVGKWNQPKNVPQCLLSHLETFVWTRYRWEREEEKEEATYILKNARLLSKATFSTNIIDLKEFHWFKK”, the protein production entry is on record as “failed”. Take “MKLFKRISFILIVLYILIVPVQHVSAHAYLENSNPADQSHIKTAPEKVTLVFNEEIEADFPLIEVKDSSGKRVETGKTSVSKKNNHMVEASLPAELKADVYSVSWRVVSADGHAVTGIISFKLGDTKATFQESEVPSSGADLQISSIQKAILYIGFSLFIGVLVFGLGLYPRKEQISEKISGRLKKVTWIALALLGVALFMQLFVQTSITTGVSISESFGPSKLAAFLTTKTGYIWISEFIVWLLLAIFTIMMFFKNKQWSWFALLTESALIGYLIFAKAQNGHAAASADKIVSITADMLHMIAASVWVGGILVLLFVLPKTGKAREIWSRFAIVAIIAVASILVSGLLMAVMNIGQMSNLFTTNYGKILLFKIGLFLLMALLGLGHYIYLKLKNKKLPFKTILIELIIGTIILIVASVLTNVQTPPPPAPKAFDETIAAKGENAKINLRVEPATVGQNQFIITFTSADGATKTDFEQVTITTKSTKTDEKATFQAKLANENQYFAEGLYINQTGKWEITVHGLTKDFTDINQTFTTNITQ”: the protein production entry is on record as “failed”. For “MKLGFIGFGEAASAIASGLRQAGAIDMAAYDAASAESWRPRAEELGVSCKASVAEVAGECDVIFSLVTAQAALEVAQQAGPHLCEGALYADFTSCSPAVKRAIGDVISRHRPSAQYAAVAVMSAVKPHGHRVPLVVDGDGARRFQAAFTLYGCRIEVLDGEVGGAALLKMCRSAVLKGLEALFLEALAAAEKMGLADRVLASLDASFPEHHLRDLALYLVERNLEHADRRAHELGEVAATLCSVGVEPLVAEAGYRRLTRVAQVRAALKQRPGDVRAWLRSLANAEDA”, the protein production result is recorded as “not failed”. Consider “MKLGKAQSLEDVAGLVGACAVTILAVIIISALYVGREVFVPVALAILLSFVLARPVNFLQSLRVPRAIAAISTVLFAFAVIFALGSLIATQLSRLADDLPQYQSTIQSKITSLRGVTGGSTTLERAEGMLQNLSKELNKPKNAPAPSLSNPPTSSSRPVTPVPVEVLQPDPGTLANLRSLIAPLISPLATTGIIVIFVIFILLQREDLRNRLIRLAGTRDLQRTTAALDDAASRLSRLFLNQLLINSGFGVLIGTGLWIIGVPSPALWGILAAVLRFVPYIGSIISAAFPLTLAVAVDPGWSMLVWTAILFFVIEPAIAHVVEPMVYGRSTGLSPVAVVISATFWTALWGPIGLVLATPLTVCLVVLGRHVERLAFLDVMFGDRPALSPPEIFYQRMLAGDPAEAAEKAEQFLKERSLSSYYDDVALKGLQLAQADLDRDALDAVRLTRIKETVQEFTEDLTDEIDQAPDGDEATTDAEAAAAVEVTPVDHADDDIAVLKPADLKPGWQGAAPVMCIGGRSQLDEAAALMLAHLCRVHGIGARVEPSSALSTKNIFGLDVSNVALICLSYLEASNTTHIRYAVRRLRRKAPHAKIIVALWSAETPQLADTNESAQADATVLTLRDAVKYCVEEAIIEPPPQTIEMPVISEAV”, for which the protein production entry was “failed”. In the case of “MKLGYSLSKSNAKNFKFYINGSAMGYKNIIINGAKSWNASPYLNTVSKGRDANPHFIISSSTIDRGATVAVCETWAYKGSKLVAKNEITTFKAFRSLSVGDKTETIAHEFGHGLGLGHVKTKNAIMLDVGFTKKIKPQRDDLNGIKAIYKLEHHHHHH”, the protein production entry is recorded as “failed”.
